In the supplement of paper PMC11502859:

Tested on: HEK293T
Assay: median enrichment of reporter reads in eGFP-reduced (low/intermediate) vs eGFP-high sorted cells (eGFP-extension fusion abundance) (ratio); higher = stronger loss of eGFP-fusion protein abundance (more destabilising extension)
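Further: lentiviral eGFP-IRES-mCherry reporter pool sorted by FACS 96 h post-transduction, gated on mCherry-high cells, Illumina read counts normalized per million, median across four biological replicates.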

Sequence of EIF2AK2 (chain, as listed by the source): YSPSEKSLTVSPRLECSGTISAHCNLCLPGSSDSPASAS

Point of comparison: EGPPCICT [PDK2], median enrichment 1.79. Against it:
- EEEEE [Glu05] — lower, 1.41
- EEEEEE [Glu06] — lower, 1.59
- EEEEEEE [Glu07] — lower, 1.23
- EEEEEEEE [Glu08] — lower, 0.411
- EEEEEEEEE [Glu09] — lower, 0.433
- EEEEEEEEEE [Glu10] — lower, 0.42
- EEESLPPPKYWAALSLPRDHPSLPAMCTIMTNLFGYAVVLPFWGLGSTRRLCLQCRNLFSLCVAGARAQGPCLCIFNKYSFSK [GPR108] — lower, 0.994
- EEITRWHQPRALARYGEGTWGPHLPPGLFREDPTVTPPSAVGAWRWAAGLNPPWGAPFLLPICVYIHK [MEF2B] — higher, 6.73
- EESATNYNFTIKTGKRPGMVAHACNHSTLGG [OR6C6] — higher, 6.68
- EETTHPEPQHCLTLGTRDPTEMFWRAGGFPQSPPSSSPSNQSCV [SERPINA6] — lower, 0.705
- EFFLELKHPRMPLHVFHSPHLQTSLLFLTRPESKLPSLGNSGEGVSCTTYHTPSHPVSDFGMDSGKLGPSLNRVMYLNVCYFQ [HSPA1L] — higher, 5.31
- EFIFKRFSECAQNTWLK [TRMT10C] — higher, 5.59
- EFILERNSTNVKNVTKLLSISLTLLHIRKFILEKNPTDVKNVAKPLSTPLNLLHIRDFILERNPTDVNNVVKLFTYPHTLLHI [ZNF626] — higher, 2.95
- EFILMKENVTKEMHEM [MYH4] — higher, 2.79
- EFK [BBS9] — lower, 0.267
- EFLSHSPTSTTTGQLSPFPTL [RNASE13] — lower, 0.565
- EGGALCLCLPV [CTSE] — higher, 7.51
- EGLATPVKAVLLLDTISSSGRAVERESNFLLEEYLCLLTLN [CDC14A] — higher, 6.01
- EGLPFPKPRVMSNCNQAQNQRPGCEIHTSLELVVSSWPQQLFPVLTG [PHF11] — higher, 7.37
- EGN [CYTL1] — lower, 0.312
- EGTLQSLFHIFKPH [HMCN1] — higher, 7.78
- EHH [SPRR2G] — lower, 0.297
- EHQETLE [KLHL14] — lower, 0.343
- EHVGSVPTQCFGKCKI [DNAH5] — lower, 0.681
- EIF2AK2 — higher, 2.12
- EIKCTRSQ [NLRC4] — higher, 9.53
- EILGSKYTSLFKNSNLI [OR10G4] — higher, 11.8
- EILSLAAICKGS [TET2] — higher, 18.6
- EIPQHGSLMFICCLSFLLSFPVCFQFSTSSAHPVLCPFVCVRTI [PCLO] — higher, 8.91
- EKHLKC [FAN1] — lower, 0.297
- EKLVLCSG [ZDBF2] — higher, 5.06
- EKPSRRKNSLSQFSKEPRILQRMCEDFPVLDGE [SAMD7] — lower, 1.53
- EKSYMAKRSRSKFRSHSQGNQYLPI [SNX24] — lower, 1.3
- EKTVCKRSGVQEITSFDRSMYRKFKFCLRLHKLGAFLRCFSCSNLFVS [SRSF3] — higher, 10
- EKYHLPYAARDLQTFFLPFW [SPAG11A] — higher, 6.64
- ELLGQRLKPQDPCCPSRSFFLESQGKPFRAAPPSGQKLK [ALG1] — higher, 3.82
- ELLPLSTRSSWQRELRTAAALSVRWRPTSRFCPALCG [ACVR1B] — higher, 9.04
- ELLTAFPKALLQKRSMSVIITWLSNLFHSMEPWRRKTLSYFVTQPGIGLFGPTRFPSPEELPRPGDQC [GRM7] — higher, 6.76
- ELPGLGGLSGIAMLVAREKKSTANKTTQTKPSTA [FOXA1] — lower, 1.47
- ELQEAN [GZMB] — lower, 0.208
- ELQQKNLHCYIRYRYKMQKKHQEFCLLFYFIFKLQEVFSSWDNLVLLLSIICQFLCILNKINIELK [WDR49] — higher, 2.64
- ELSASARRASLPNQPWVPGSRLEPAINSLFLAPGSNGGPHLRTSGEAIAPSGEVMHFLSTYCLPGPRAHGEETWAHPCRKRDN [TSSK6] — higher, 3.11
- ELSF [ADHFE1] — lower, 0.232
- EMALSPPRSWGQ [Degron APPBP2] — higher, 10.9
- EMCNLISLFHHNHDRW [C9orf72] — higher, 9.03
- ENSSSTMDFRLLVAVLT [ELF2] — higher, 7.29
- EPGNPYSFSNTGSFI [ADAM30] — lower, 0.267
- EPKEVPGTVSDLERSQKENNIIK [CELA2A] — lower, 0
- EPSPPLLCVGTGGPWPVPGHSGQGPRDISTRSWRAVRIHSACPALAGQRQGRTFGKTKTVGDRVCVYLCVSVSVCERELVSLK [TCF15] — higher, 6.39
- EPVKNHAKAKTRSAERAHGSSRLVGDQAHLICTNCSTC [OCSTAMP] — higher, 3.35
- EPWPWAPPQGRASRNGDSPGTACPQRGGGHSWAPESLRVLPTEPLGWEGAGGLARTPTFASSSSCPAGRAPPCMMGKAILPLP [SCN1B] — higher, 2.5
- EQPGTAFSFPAEYC [RBM34] — lower, 0.275
- ERAPTGRWGRRG [Degron KLHDC3] — higher, 5.05
- ERSPNLQVQGRYIHI [MARK1] — lower, 1.47
- ESFHMIFCHIKHIVCLTVYRILKCSGCKTRDYLYAQNSYIFINEFNILFILVRAGQPFWVTQLIYQLIQIIEYIHNQADTS [PLS1] — higher, 11.2
- ESHMRRTACSDQRAQRPEDKSGGDSMGMGVGCLRERTHGLGRGERCMGITFARAAYLKVTVSSGTAGDRYLLLQEINYPENST [LEXM] — higher, 5.93
- ESPLFLPTLQGPHSPYPSVQCTREETLCL [IDH3B] — higher, 13.1
- ESSTLLLQWVQKLLRPVVK [MYLK3] — higher, 7
- ESVAFLLFPH [NKAIN2] — higher, 6.56
